Assay results as given in patent publication US20230174669A1 (ALIADA THERAPEUTICS, published 2023).
Residue numbers refer to the chain shown, from its start.

B1: BBBB1067 (bispecific antibody)
heavy 1: EVQLVESGGGLVKPGGSLRLSCAASGFTFSSYAMSWVRQAPGKGLEWVASISKGGNTYYPDSVKGRFTISRDNAKNSLYLQMNSLRAEDTAVYYCARGWGDYGWFAYWGQVTLVTVSSASTKGPSVFPLAPSSKSTSGGTAALGCLVKDYFPEPVTVSWNSGALTSGVHTFPAVLQSSGLYSLSSVVTVPSSSLGTQTYICNVNHKPSNTKVDKKVEPKSCDKTHTCPPCPAPEAAGGPSVFLFPPKPKDTLYITREPEVTCVVVSVSHEDPEVKFNWYVDGVEVHNAKTKPREEQYNSTYRVVSVLTVLHQDWLNGKEYKCKVSNKALPAPIEKTISKAKGQPREPQVYVYPPSREEMTKNQVSLTCLVKGFYPSDIAVEWESNGQPENNYKTTPPVLDSDGSFALVSKLTVDKSRWQQGNVFSCSVMHEALHNHYTQKSLSLSPGGGAGGAQVQLVESGGGVVQPGRSLRLSCAASGFTFSSYGMHWVRQAPGKGLEWVAIISYDGSNKHYADSVKGRFTISRDNSKNTLYLQMNSLRAEDTAVYYCARAPSSFYFDYWGQGTLVTVSSGTEGKSSGSGSESKSTDIVMTQSPDSLAVSLGERATINCKSSQSVLFSSNNKNYLAWYQQKPGQPPKLLIYWASTRESGVPDRFSGSGSGTDFTLTISSLQAEDVAVYYCQQYYSTPPTFGQGTKVVIK
light: DIQMTQSPSSLSASVGDRVTITCKASQDINRYLNWFQQKPGKAPKTLIYRANRLLDGVPSRFSGSGSGTDFTLTISSLQPEDFATYYCQQYDEFPLTFGQGTKLEIKRTVAAPSVFIFPPSDEQLKSGTASVVCLLNNFYPREAKVQWKVDNALQSGNSQESVTEQDSKDSTYSLSSTLTLSKADYEKHKVYACEVTHQGLSSPVTKSFNRGEC
heavy 2: EVQLVESGGGLVKPGGSLRLSCAASGFTFSSYAMSWVRQAPGKGLEWVASISKGGNTYYPDSVKGRFTISRDNAKNSLYLQMNSLRAEDTAVYYCARGWGDYGWFAYWGQVTLVTVSSASTKGPSVFPLAPSSKSTSGGTAALGCLVKDYFPEPVTVSWNSGALTSGVHTFPAVLQSSGLYSLSSVVTVPSSSLGTQTYICNVNHKPSNTKVDKKVEPKSCDKTHTCPPCPAPEAAGGPSVFLFPPKPKDTLYITREPEVTCVVVSVSHEDPEVKFNWYVDGVEVHNAKTKPREEQYNSTYRVVSVLTVLHQDWLNGKEYKCKVSNKALPAPIEKTISKAKGQPREPQVYVLPPSREEMTKNQVSLLCLVKGFYPSDIAVEWESNGQPENNYLTWPPVLDSDGSFFLYSKLTVDKSRWQQGNVFSCSVMHEALHNHYTQKSLSLSPG
notes: also called tripod mAb Anti-Tau IgG1 AAS YTE with C98hc4
B2: BBBB1061 (bispecific antibody, human IgG1, kappa, L234A L235A)
heavy 1: EVQLVESGGGLVKPGGSLRLSCAASGFTFSSYAMSWVRQAPGKGLEWVASISKGGNTYYPDSVKGRFTISRDNAKNSLYLQMNSLRAEDTAVYYCARGWGDYGWFAYWGQVTLVTVSSASTKGPSVFPLAPSSKSTSGGTAALGCLVKDYFPEPVTVSWNSGALTSGVHTFPAVLQSSGLYSLSSVVTVPSSSLGTQTYICNVNHKPSNTKVDKKVEPKSCDKTHTCPPCPAPEAAGGPSVFLFPPKPKDTLYITREPEVTCVVVSVSHEDPEVKFNWYVDGVEVHNAKTKPREEQYNSTYRVVSVLTVLHQDWLNGKEYKCKVSNKALPAPIEKTISKAKGQPREPQVYVYPPSREEMTKNQVSLTCLVKGFYPSDIAVEWESNGQPENNYKTTPPVLDSDGSFALVSKLTVDKSRWQQGNVFSCSVMHEALHNHYTQKSLSLSPGGGAGGAQVQLVESGGGLVQAGGSLRLSCAASGRAFSSNGMGWFRQAPGKEREFVATISCSGTSTYYADSVKGRFTISRDNAKNTVYLQMNSLKPEDTAVYFCAADTRHCMGYTKDEGYAYWGQGTQVTVSS
light: B1 light
heavy 2: B1 heavy 2
notes: also called tripod mAb Anti-Tau IgG1 AAS YTE with C98hc2
B3: BBBB1070 (bispecific antibody, human IgG1, kappa, L234A L235A)
heavy 1: EVQLVESGGGLVKPGGSLRLSCAASGFTFSSYAMSWVRQAPGKGLEWVASISKGGNTYYPDSVKGRFTISRDNAKNSLYLQMNSLRAEDTAVYYCARGWGDYGWFAYWGQVTLVTVSSASTKGPSVFPLAPSSKSTSGGTAALGCLVKDYFPEPVTVSWNSGALTSGVHTFPAVLQSSGLYSLSSVVTVPSSSLGTQTYICNVNHKPSNTKVDKKVEPKSCDKTHTCPPCPAPEAAGGPSVFLFPPKPKDTLYITREPEVTCVVVSVSHEDPEVKFNWYVDGVEVHNAKTKPREEQYNSTYRVVSVLTVLHQDWLNGKEYKCKVSNKALPAPIEKTISKAKGQPREPQVYVYPPSREEMTKNQVSLTCLVKGFYPSDIAVEWESNGQPENNYKTTPPVLDSDGSFALVSKLTVDKSRWQQGNVFSCSVMHEALHNHYTQKSLSLSPGGGAGGAQVQLQESGPGLVKPSETLSLTCTVSGGSISSSYWSWIRQPPGKGLEWIGYIYNSGSTNYNPSLKSRVTISVDTSKNQFSLKLSSVTAADTAVYYCARETYYFDYWGQGTLVTVSSGTEGKSSGSGSESKSTDIVMTQSQKFMSTSVGDRVSVTCKASQNVGINVAWYQKKPGQPPKALIYSAAYRYSGVPDRFTGSGSGTDFTLTISNVQSEDLAEYFCQQYNSYPLTFGSGTKLEIK
light: B1 light
heavy 2: B1 heavy 2
notes: also called tripod mAb Anti-Tau IgG1 AAS YTE with C98hc5
B4: BBBB1065 (bispecific antibody)
heavy 1: B1 heavy 1 with A235L, A236L, Y253M, T255S, E257T, S266D
light: B1 light
heavy 2: B1 heavy 2 with A235L, A236L, Y253M, T255S, E257T, S266D
notes: also called tripod mAb Anti-Tau IgG1 with C98hc4
B5: BBBB1202 (bispecific antibody)
heavy 1: B1 heavy 1 with S555H
light: B1 light
heavy 2: B1 heavy 2
B6: BBBB1201 (bispecific antibody)
heavy 1: B1 heavy 1 with S555A
light: B1 light
heavy 2: B1 heavy 2

These binders were tested against T1, human CD98hc (human, UniProt P08195 105-529) (assay: SPR ProteOn, anti-Tau tripod mAb captured by anti-Fc, huCD98hc flowed).
T1 construct: Soluble protein flowed over captured tripod mAbs in SPR; also called huCD98hc; human CD98 heavy chain
T1 sequence: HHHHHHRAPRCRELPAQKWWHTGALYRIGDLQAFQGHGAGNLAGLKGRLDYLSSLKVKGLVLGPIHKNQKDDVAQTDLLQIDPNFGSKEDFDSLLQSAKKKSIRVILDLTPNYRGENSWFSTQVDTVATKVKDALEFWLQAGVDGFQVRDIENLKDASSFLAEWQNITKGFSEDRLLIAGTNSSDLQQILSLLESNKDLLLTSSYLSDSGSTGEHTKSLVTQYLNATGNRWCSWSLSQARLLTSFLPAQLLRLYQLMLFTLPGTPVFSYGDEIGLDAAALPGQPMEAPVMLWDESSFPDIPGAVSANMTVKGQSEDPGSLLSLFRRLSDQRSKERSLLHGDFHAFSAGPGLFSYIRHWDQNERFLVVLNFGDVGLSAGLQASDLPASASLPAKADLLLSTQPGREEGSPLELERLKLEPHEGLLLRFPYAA

Compared with B1, B2 is 2.2-fold lower in Kd: 3.15 nM for the first, 1.46 nM for the second. The second binds more tightly here.

Going from B3 to B4, the Kd falls from 118 nM to 2.96 nM (40-fold).

B1 and B2 are within 1.5-fold of each other in koff: 0.00138 s⁻¹ for the first, 0.00135 s⁻¹ for the second.

First: B3
Second: B4
The koff of the first is 4.7-fold higher: 0.00648 s⁻¹ for the first, 0.00139 s⁻¹ for the second.

Compared with B1, B2 is 2.1-fold higher in kon: 439000 M⁻¹ s⁻¹ for the first, 935000 M⁻¹ s⁻¹ for the second.

Going from B3 to B4, the kon rises from 55700 M⁻¹ s⁻¹ to 470000 M⁻¹ s⁻¹ (8.4-fold).

The binders below were run against T1, human CD98hc (assay: SPR ProteOn, mAb captured by anti-Fc, huCD98hc flowed, 1:1 model).
Experimental: An Fc capture surface was generated by coupling anti-IgG Fc mAb (Jackson ImmunoResearch) to a GLC chip (BioRad) using the amine-coupling chemistry (BioRad).
The chip surface was regenerated with two 18 second pulses of 100 mM H3PO4 (Sigma) at 100 μL/min. The collected data were processed using ProteOn Manager software V3.1.0.6 (BioRad). First, the data was corrected for background using inter-spots. Then, double reference subtraction of the data was performed by using the buffer injection for analyte injections. The kinetic analysis of the data was performed using a Langmuir 1:1 binding model.

First: B5
Second: B6
The Kd of the first is 3.1-fold higher: 52.9 nM for the first, 16.9 nM for the second.

B5 and B6 are within 1.5-fold of each other in koff: 0.00882 s⁻¹ for the first, 0.006 s⁻¹ for the second.

Compared with B5, B6 is 2.1-fold higher in kon: 167000 M⁻¹ s⁻¹ for the first, 357000 M⁻¹ s⁻¹ for the second.
